Assay results taken from patent US20200255508A1 (AbbVie / Abbott, published 2020).
Substitutions are numbered along the chain they refer to.

B1: E9.4 (antibody, V domains shown)
VH: EVQLQESGPGLVKPSETLSLTCTVSGGSISSSSYYWGWIRQPPGKGLEWIGDIYYTGSTYYNPSLKSRVTISVDTSKNQFSLKLSSVTAADTAVYYCARYDVSLGGSSDHWGQGTLVTVSS
VL: SYELTQPPSVSVSPGQTASITCSGQRLGDKYASWYQQKPGQSPVLVIYEDSKRPSGIPERFSGSNSGDTATLTISGTQPMDEADYYCQAWDRDTGVFGYGTKVTVL
notes: also called DLL4-E9-4 hIgG1/L
B2: E9.11 (antibody, V domains shown)
VH: B1 VH with Y100E, D101A, S103P, S107G, H110Y
VL: B1 VL
notes: also called DLL4-E9-11 hIgG1/L
B3: E9.17 (antibody, V domains shown)
VH: B1 VH with Y100E, D101E, V102A, S103I, S107G, H110Y
VL: B1 VL
notes: also called DLL4-E9-17 hIgG1/L
B4: E9.22 (antibody, V domains shown)
VH: B1 VH with S31N, S33R, Y35H, S67G, Y100E, S103I, G105R, S107G, H110Y
VL: B1 VL
notes: also called DLL4-E9-22 hIgG1/L
B5: E9.38 (antibody, V domains shown)
VH: B1 VH with Y100E, S103I, G105R, S107G, H110Y
VL: B1 VL with A32V, T94V, Y99S
notes: also called DLL4-E9-38 hIgG1/L
B6: E9.48 (antibody, V domains shown)
VH: B1 VH with S33G, Y54N, T56R, Y100E, S103I, G105R, S107G, H110Y
VL: B1 VL
notes: also called DLL4-E9-48 hIgG1/L
B7: E9.66 (antibody, V domains shown)
VH: B1 VH with Y100E, D101G, S103P, S107G, S108A, H110K
VL: B1 VL
notes: also called DLL4-E9-66 hIgG1/L
B8: E9.12B (antibody, V domains shown)
VH: B1 VH with S33N, Y100E, D101A, L104F, S107G, S108A, H110S
VL: SYELTQPPSVSVSPGQTASITCSGDGLGDKYVSWYQQKPGQSPVLVIYEDSTRPSGIPERFSGSNSGDTATLTISGTQPMDEADYYCQAWDSESGVFGSGTKVT
B9: E9.5E (antibody, V domains shown)
VH: B1 VH with Y54N, T56I, Y100E, D101S, S103P, S107G, S108A, H110E
VL: B8 VL with G26M, T52Q, S94T
B10: E9.7E (antibody, V domains shown)
VH: B1 VH with T56A, S67D, Y100E, V102M, S103I, S107G, S108A, H110N
VL: B8 VL with G26R, T52E, P79A, S94A
B11: E9.10E (antibody, V domains shown)
VH: B1 VH with S30N, S32G, S33N, Y54S, Y100E, S103M, L104Y, S107G, S108G, H110S
VL: B8 VL with D25E, T52E, P79A, S94A
B12: E9.10C (antibody, V domains shown)
VH: B1 VH with S32G, Y100Q, D101A, S103M, L104Y, S107G, H110N
VL: B8 VL with G26S, T52E, P79A, S94T
B13: E9.71(L) (antibody, human IgG1, V domains shown)
VH: B1 VH with Y100Q, D101A, V102L, S103A, S107G, H110K
VL: SYELTQPPSVSVSPGQTASITCSGQRLGDKYASWYQQKPGQSPVLVIYEDSKRPSGIPERFSGSNSGDTATLTISGTQPMDEADYYCQAWDRDTGVFGGGTKLTVLG
notes: Methionine in CDR-H3 of E9-71 changed to leucine
B14: E9.71(M) (antibody, human IgG1, V domains shown)
VH: B1 VH with Y100Q, D101A, V102L, S103A, L104M, S107G, H110K
VL: B13 VL
B15: E9.1F (antibody, V domains shown)
VH: B1 VH with S32G, Y54N, T56I, Y100E, D101A, L104F, S107G, S108A, H110S
VL: B1 VL with Q25D, A32V, K52Q, P79A, R92M, D93E, T94A, Y99S
notes: also called E9.IF
B16: E9.10H (antibody, V domains shown)
VH: B1 VH with S33G, S58N, S67N, Y100E, D101E, S103I, S107G, S108A, H110Q
VL: B8 VL with D25E, G26S, T52K, P79A, S92G, S94T
B17: A10.K42 (antibody, V domains shown)
VH: EVQLVESGGGLVQPGGSLRLSCAASGFTFQSHWMSWVRQAPGKGLEWVAMISYDGTIKYYADSVKGRFTISRDNSKNTLYLQLNSLRAEDTAVYYCAKAGGGNVGFDIWGQGTMVTVSS
VL: SYELTQPPSVSVSPGQTASITCSADKLGTKYVSWYQQKPGQSPVLVIYQDAKRPSGIPERFSGSNSGNTATLTISGTQTMDEADYLCQSWDRSDVVFGGGTKLTVL
B18: E9.71(M)-3 (antibody, human IgG1, V domains shown)
VH: B1 VH with Y100Q, D101A, V102L, S103A, L104M, S107G, H110K
VL: YELTQPPSVSVSPGQTASITCSGQRLGDKYASWYQQKPGQSPVLVIYEDSKRPSGIPERFSGSNSGDTATLTISGTQPMDEADYYCQAWDRDTGVFGGGTKLTVLG

Biological target: T1, human DLL4 on the cell surface (human, UniProt Q9NR61 27-685)
T1 construct: whole, on cells; also called HEK293-hDLL4; hDLL4-293G
Assay: competition FACS, competitor huNotch-1;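 also: stable cell lines displaying human or mouse DLL4 on their surface, Notch binding detected by flow cytometry via R-phycoerythrin streptavidin fluorescence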
Method: (§1) Notch blocking assay: Briefly, stable cell lines overexpressing cell-surface DLL4 were harvested from tissue culture flasks and re-suspended in phosphate buffered saline (PBS) containing 1% bovine serum albumin and 1 mM CaCl₂ (FACS buffer). HEK293-hDLL4 or HEK293-mDLL4 cells were dispensed into 96-well plate (v-bottom) at 1.5×10⁵ cells/well in FACS buffer. […] After washing the cells two times with FACS buffer, 50 μL of R-phycoerythrin-conjugated streptavidin (1:150 dilution in FACS buffer) (Jackson ImmunoResearch, West Grove, Pa., US, catalog no. 016-110-084) were added. Following an incubation on ice (4° C., 60 minutes), cells were washed three times and resuspended in FACS buffer. Fluorescence was measured using a Becton Dickinson FACSCalibur-HTS (Becton Dickinson, San Jose. Calif.).

Binder | IC50 [nM]
B1 | 4.3
B2 | 14.8
B3 | 19.8
B4 | 21.1
B5 | 7.76
B6 | 9.12
B7 | 5.03
B8 | 4.44
B9 | 3.76
B10 | 4
B11 | 3.83
B12 | 3.03
B13 | 1.82
B14 | 2.12
B15 | 6.55
B16 | 5.65

Biological target: T2, mouse DLL4 on the cell surface (mouse, UniProt Q9JI71 27-686)
T2 construct: whole, on cells; also called HEK293-mDLL4; mDLL4-293G
T2 sequence (Q9JI71 27-686): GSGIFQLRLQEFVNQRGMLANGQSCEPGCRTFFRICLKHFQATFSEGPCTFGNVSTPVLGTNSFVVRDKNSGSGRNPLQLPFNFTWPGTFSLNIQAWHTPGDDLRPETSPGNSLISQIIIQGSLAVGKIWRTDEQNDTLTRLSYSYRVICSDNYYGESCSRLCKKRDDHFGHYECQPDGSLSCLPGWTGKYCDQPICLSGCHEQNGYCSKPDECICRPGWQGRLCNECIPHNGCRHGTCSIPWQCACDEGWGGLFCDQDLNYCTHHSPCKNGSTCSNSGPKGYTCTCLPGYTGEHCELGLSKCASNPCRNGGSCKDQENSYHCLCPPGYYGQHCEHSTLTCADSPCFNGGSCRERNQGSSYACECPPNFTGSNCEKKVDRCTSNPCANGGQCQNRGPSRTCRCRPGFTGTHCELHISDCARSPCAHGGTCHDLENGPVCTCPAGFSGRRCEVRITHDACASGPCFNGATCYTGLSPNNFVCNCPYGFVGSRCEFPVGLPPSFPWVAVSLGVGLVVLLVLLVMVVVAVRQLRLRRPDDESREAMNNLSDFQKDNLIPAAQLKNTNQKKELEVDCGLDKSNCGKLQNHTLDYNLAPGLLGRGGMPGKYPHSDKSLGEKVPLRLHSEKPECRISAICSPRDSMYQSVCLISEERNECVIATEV
Assay: competition FACS, competitor huNotch-1;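 also: stable cell lines displaying human or mouse DLL4 on their surface, Notch binding detected by flow cytometry via R-phycoerythrin streptavidin fluorescence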
Method: as §1

Binder | IC50 [nM]
B1 | 0.3
B2 | 2.06
B4 | 2.63
B5 | 1.2
B6 | 1.3
B7 | 0.99
B8 | 0.37
B9 | 0.34
B10 | 0.33
B11 | 0.36
B12 | 0.26
B13 | 0.21
B14 | 0.18
B15 | 0.65
B16 | 0.6

Biological target: T3, human DLL4 extracellular domain (human, UniProt Q9NR61 27-529)
T3 construct: extracellular domain; coated on plates in the sVEGFR1 assay; also called huDLL4 ECD; Human DLL4 ECD
Assay: Biacore SPR;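 also: surface plasmon resonance on a Biacore instrument, antibodies captured on immobilized anti-human Fc, purified recombinant DLL4 extracellular domain injected as analyte, binding followed over time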

Binder | Kd [nM] | koff [s⁻¹] | kon [M⁻¹ s⁻¹]
B1 | 0.58 | 3.31e-05 | 56700
B2 | 0.48 | 1.74e-05 | 36300
B3 | 0.1 | 4.4e-06 | 43900
B4 | 8.46 | 0.000331 | 39100
B5 | 2.75 | 3.48e-05 | 12700
B6 | 6.92 | 7.59e-05 | 11000
B7 | 0.078 | 2.5e-06 | 32600
B8 | 0.02 | 3.1e-06 | 151000
B9 | 0.04 | 6e-06 | 150000
B10 | 0.27 | 4.12e-05 | 152000
B11 | 0.21 | 4.62e-05 | 218000
B12 | 0.38 | 4.59e-05 | 120000
B15 | 0.05 | 1.16e-05 | 218000
B16 | 0.57 | 5.9e-05 | 104000
B17 | 4.06 | 0.000406 | 100000

Biological target: T4, mouse DLL4 extracellular domain (mouse, UniProt Q9JI71 27-532)
T4 construct: extracellular domain; also called muDLL4 ECD; Mouse DLL4 ECD
T4 sequence (Q9JI71 27-532): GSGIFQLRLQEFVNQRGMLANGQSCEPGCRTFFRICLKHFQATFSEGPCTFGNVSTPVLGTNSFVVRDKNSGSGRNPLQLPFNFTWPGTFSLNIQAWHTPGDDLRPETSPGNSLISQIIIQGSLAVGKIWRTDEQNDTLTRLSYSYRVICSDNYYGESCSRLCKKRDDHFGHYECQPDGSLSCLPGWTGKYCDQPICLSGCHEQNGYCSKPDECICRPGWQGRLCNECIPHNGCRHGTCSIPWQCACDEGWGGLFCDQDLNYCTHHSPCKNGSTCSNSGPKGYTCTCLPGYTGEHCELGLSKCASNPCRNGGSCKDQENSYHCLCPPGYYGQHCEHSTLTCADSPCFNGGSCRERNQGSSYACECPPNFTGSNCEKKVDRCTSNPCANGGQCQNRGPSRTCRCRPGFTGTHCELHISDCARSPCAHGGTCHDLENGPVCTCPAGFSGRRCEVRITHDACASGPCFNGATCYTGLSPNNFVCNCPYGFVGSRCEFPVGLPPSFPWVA
Assay: Biacore SPR;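 also: surface plasmon resonance on a Biacore instrument, antibodies captured on immobilized anti-human Fc, purified recombinant DLL4 extracellular domain injected as analyte, binding followed over time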

Binder | Kd [nM] | koff [s⁻¹] | kon [M⁻¹ s⁻¹] | binding result
B1 | 1.12 | 6.01e-05 | 53800 | –
B2 | 0.5 | 1.39e-05 | 27700 | –
B3 | 0.38 | 1.41e-05 | 37000 | –
B4 | 3.5 | 0.000133 | 37800 | –
B5 | 9.27 | 0.000171 | 18400 | –
B6 | 2.53 | 4.17e-05 | 16500 | –
B7 | 0.5 | 1.44e-05 | 28900 | –
B8 | 0.18 | 1.47e-05 | 83500 | –
B9 | 0.02 | 2e-06 | 89000 | –
B10 | 2.3 | 0.000221 | 95300 | –
B11 | 0.62 | 9.41e-05 | 151000 | –
B12 | 1.6 | 0.000121 | 73700 | –
B16 | 0.34 | 2.23e-05 | 65300 | –
B17 | – | – | – | no binding

Biological target: T1, human DLL4 on the cell surface
Assay: FACS on DLL4 cells

Binder | EC50 [nM]
B1 | 1.63
B2 | 4.46
B3 | 8
B4 | 34.3
B5 | 1.66
B7 | 2.02
B8 | 3.34
B9 | 2.7
B10 | 4.46
B11 | 5.1
B12 | 3.15
B13 | 0.22
B14 | 0.27
B15 | 2.65
B16 | 3.52

Biological target: T2, mouse DLL4 on the cell surface
Assay: FACS on DLL4 cells

Binder | EC50 [nM]
B1 | 0.63
B2 | 1.45
B3 | 2.57
B4 | 37.4
B5 | 0.13
B7 | 0.7
B8 | 0.71
B9 | 0.89
B10 | 1.94
B11 | 1.19
B12 | 0.88
B13 | 0.47
B14 | 0.29
B15 | 0.37
B16 | 0.82

Biological target: T1, human DLL4 on the cell surface
Assay: cell-based or functional assay

Binder | Inhibition of Notch activation via huDLL4 cells, coculture (IC50, nM) [nM]
B3 | 1
B10 | 0.41
B12 | 0.85
B13 | 2.4
B18 | 0.65
